Source: patent publication US20180147257A1 (Stanford University, published 2018)

Target: T1, PDL1 displayed on yeast cells (UniProt Q9NZQ7 19-238, limits assumed)
T1 construct: Control for the yeast display staining; also called closest CD277 structural homologue
Test: FACS staining of yeast displaying PDL1 with purified LTβR-IgG1 fusion protein

T1 sequence (Q9NZQ7 19-238 limits assumed): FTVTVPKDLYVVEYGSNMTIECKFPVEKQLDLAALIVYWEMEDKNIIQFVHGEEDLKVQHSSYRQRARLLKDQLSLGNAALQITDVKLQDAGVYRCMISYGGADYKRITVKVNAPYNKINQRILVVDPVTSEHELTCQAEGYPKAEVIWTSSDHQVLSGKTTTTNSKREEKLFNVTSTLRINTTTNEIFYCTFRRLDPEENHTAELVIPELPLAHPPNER

binding result: no binding
B1: LTβR-IgG1 fusion protein (Fc fusion, UniProt P36941 31-227, looked up)
chain: QAVPPYASENQTCRDQEKEYYEPQHRICCSRCPPGTYVSAKCSRIRDTVCATCAENSYNEHWNYLTICQLCRPCDPVMGLEEIAPCTSKRKTQCRCQPGMFCAAWALECTHCELLSDCPPGTEAELKDEVGKGNNHCVPCKAGHFQNTSSPSARCQPHTRCENQGLVEAAPGTAQSDTTCKNPLEPLPPEMSGTMLM
notes: Purified fusion protein; also called LTBR-IgG1 fusion protein; not shown: IgG1 part of the fusion
